Results taken from patent US20050288225A1 (YEDA RESEARCH AND DEVELOPMENT, published 2005).

Target: T1, HA-tagged B1 protein (Homo sapiens (Human), UniProt O43353 1-540)
T1 construct: Expressed in transfected 293 cells for co-immunoprecipitation; also called HA-B1
Assay: co-immunoprecipitation from transfected 293 cells: anti-FLAG IP, anti-HA western blot
Description: Seven hours after transfection cells were washed and 18 hours later cells were lysed in a buffer containing 50 mM HEPES pH 7.5, 250 mM NaCl, 0.2% NP-40, 5 mM EDTA, 1 mM phenylmethylsulfonyl fluoride, 2.0 μg/ml aprotinin and 20 μg/ml leupeptin (lysis buffer). Immunoprecipitation was performed by incubation (2hours, 4° C.) of 1 ml aliquots of lysate with anti-FLAG epitope antibody (5 μg/aliquot) and with protein G-agarose beads (30 μl/aliquot). Immunoprecipitates were washed three times with lysis buffer and once with PBS, fractionated by 10% SDS-PAGE and transferred to a nitrocellulose membrane (Schleicher & Schuell, Dassel, Germany). Western blot analysis was performed with anti-HA epitope monoclonal antibodies applied at a dilution of 1:1000, and the ECL kit (Amersham, Buckinghamshire, England).

T1 sequence (O43353 whole entry L79F): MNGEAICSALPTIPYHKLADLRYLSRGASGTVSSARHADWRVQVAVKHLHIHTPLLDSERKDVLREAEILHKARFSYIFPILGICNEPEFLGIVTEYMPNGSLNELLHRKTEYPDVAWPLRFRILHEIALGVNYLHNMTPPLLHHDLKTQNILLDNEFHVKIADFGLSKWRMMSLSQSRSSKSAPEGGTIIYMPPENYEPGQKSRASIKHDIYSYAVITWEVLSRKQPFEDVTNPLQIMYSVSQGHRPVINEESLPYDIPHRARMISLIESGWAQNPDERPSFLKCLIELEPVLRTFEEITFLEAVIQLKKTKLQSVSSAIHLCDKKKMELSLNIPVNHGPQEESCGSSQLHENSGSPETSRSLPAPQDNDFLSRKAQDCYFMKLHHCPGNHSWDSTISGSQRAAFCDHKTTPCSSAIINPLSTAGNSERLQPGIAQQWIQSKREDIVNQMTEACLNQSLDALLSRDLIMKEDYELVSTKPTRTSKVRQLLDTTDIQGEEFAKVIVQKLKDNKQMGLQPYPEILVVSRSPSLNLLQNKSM

- binding result: no binding
B1: Flag-tagged TRAF2 (other, UniProt Q12933 1-501, looked up, not shown: small tags and cut ends)
chain: MAAASVTPPGSLELLQPGFSKTLLGTKLEAKYLCSACRNVLRRPFQAQCGHRYCSFCLASILSSGPQNCAACVHEGIYEEGISILESSSAFPDNAARREVESLPAVCPSDGCTWKGTLKEYESCHEGRCPLMLTECPACKGLVRLGEKERHLEHECPERSLSCRHCRAPCCGADVKAHHEVCPKFPLTCDGCGKKKIPREKFQDHVKTCGKCRVPCRFHAIGCLETVEGEKQQEHEVQWLREHLAMLLSSVLEAKPLLGDQSHAGSELLQRCESLEKKTATFENIVCVLNREVERVAMTAEACSRQHRLDQDKIEALSSKVQQLERSIGLKDLAMADLEQKVLEMEASTYDGVFIWKISDFARKRQEAVAGRIPAIFSPAFYTSRYGYKMCLRIYLNGDGTGRGTHLSLFFVVMKGPNDALLRWPFNQKVTLMLLDQNNREHVIDAFRPDVTSSSFQRPVNDMNIASGCPLFCPVSKMEAKNSYVRDDAIFIKAIVDLTGL
notes: Expressed in transfected 293 cells; also called FL-TRAF2
